Three substances from article PMC1435831 can be followed below.

Read-outs that look alike come from different tables or passages of the source.

Assay [1] addresses His-tagged SmpB protein (small protein B), wild type (E. coli) (UniProt P0A832). Briefly: SPR. A general note: SPR reads the build-up and loss of mass on a sensor chip optically.
For assay [2] the target is unchanged. Briefly: SPR. This is another data set of the same source.

Sequence of UniProt P0A832 (P0A832 whole entry): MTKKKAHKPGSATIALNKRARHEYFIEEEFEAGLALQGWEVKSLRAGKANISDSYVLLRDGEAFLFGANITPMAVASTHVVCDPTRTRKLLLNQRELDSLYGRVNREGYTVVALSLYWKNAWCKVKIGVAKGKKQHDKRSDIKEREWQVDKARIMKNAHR

With 70S ribosome (complex), in assay [1], the Kd (in general, the free concentration of one partner at which half of the binding sites on the other are occupied at equilibrium, for simple one-to-one binding) worked out at 7.3 nM.

In the case of 30S ribosomal subunit (complex), the values for the Kd in assay [1] and in assay [2] were 4.4 nM and 0.17 nM, respectively.

Regarding 50S ribosomal subunit (complex), the figures for the Kd in assay [1] and in assay [2] were 4.8 nM and 0.17 nM, respectively.
